Experimental findings from article PMC8079461, “ApoA5 lowers triglyceride levels via suppression of ANGPTL3/8-mediated LPL inhibition” (Journal of Lipid Research, 2021) are described below.

Where “and” joins values, the source holds several entries; their conditions need not be identical. Identical values can stand only once.

The target of assay [1] is ANGPTL8 in human serum (human (endogenous in serum)) (UniProt Q6UXH0). In words: affinity purification with mass spectrometry; immunoprecipitation with the anti-ANGPTL3/8 antibody from 1 ml pooled human serum (three pools); on-bead Trypsin/Lys-C digest; LC-MRM with 0.25 pmole stable isotope-labeled peptides, two peptides a protein.
The target in assay [2] is T1, ANGPTL3/8 complex containing a FLAG-tag sequence at the C terminus of ANGPTL3 (recombinant, human) (human, UniProt Q9Y5C1 17-460; Q6UXH0 22-198).
T1 sequence (looked up) 1: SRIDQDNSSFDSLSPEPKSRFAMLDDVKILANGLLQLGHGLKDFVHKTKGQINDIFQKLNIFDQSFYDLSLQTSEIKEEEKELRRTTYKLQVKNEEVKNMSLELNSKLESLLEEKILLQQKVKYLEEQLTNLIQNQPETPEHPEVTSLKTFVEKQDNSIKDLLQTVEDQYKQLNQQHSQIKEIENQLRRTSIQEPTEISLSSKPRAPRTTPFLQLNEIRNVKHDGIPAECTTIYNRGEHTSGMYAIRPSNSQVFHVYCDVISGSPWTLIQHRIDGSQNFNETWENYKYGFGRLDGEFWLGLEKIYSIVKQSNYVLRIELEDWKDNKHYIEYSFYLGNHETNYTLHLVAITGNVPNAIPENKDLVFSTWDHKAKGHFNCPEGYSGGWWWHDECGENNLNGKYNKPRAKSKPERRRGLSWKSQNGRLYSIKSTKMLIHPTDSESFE
T1 sequence (looked up) 2: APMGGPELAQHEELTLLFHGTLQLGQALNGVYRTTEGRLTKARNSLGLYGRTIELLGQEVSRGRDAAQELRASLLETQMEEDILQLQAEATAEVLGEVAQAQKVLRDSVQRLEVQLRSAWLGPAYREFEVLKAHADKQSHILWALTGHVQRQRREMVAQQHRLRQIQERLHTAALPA
In words: cell-based or functional assay.

Assay [3] concerns the target T1, ANGPTL3/8 complex containing a FLAG-tag …. The assay can be described thus: BLI; Octet RED96e; FLAG-tagged ANGPTL3/8 immobilised by anti-FLAG antibody on streptavidin biosensors; 6.25-100 nM HSA-ApoA5 in solution; background reference subtraction; global fit, 1:1 binding model. Particulars: both partners purified. On the technique in general: In BLI a coated tip is dipped into the sample, and binding shifts an interference pattern.

Assay [4] concerns the target T2, ANGPTL3/8 complex present in human serum (human (endogenous in serum)) (UniProt Q6UXH0).
T2 sequence (Q9Y5C1 17-460, looked up): T1 sequence (looked up) 1
T2 sequence (Q6UXH0 22-198, looked up): T1 sequence (looked up) 2
The assay can be described thus: affinity purification with mass spectrometry; immunoprecipitation with the anti-ANGPTL3/8 antibody from 1 ml pooled human serum (three pools); on-bead Trypsin/Lys-C digest; LC-MRM with 0.25 pmole stable isotope-labeled peptides, two peptides a protein.

As usually defined, the stoichiometry N is the number of molecules, sites or subunits per partner or assembly. Turning to “ANGPTL3 in human serum (natural protein)”, the stoichiometry N in assay [1] is 2.8 and 2.7.

B1: HSA-ApoA5 (HIS tag-mature HSA-PreScission cleavage site-mature human ApoA5, residues 24-366) (natural protein, UniProt Q6Q788 24-366, looked up)
chain: RKGFWDYFSQTSGDKGRVEQIHQQKMAREPATLKDSLEQDLNNMNKFLEKLRPLSGSEAPRLPQDPVGMRRQLQEELEEVKARLQPYMAEAHELVGWNLEGLRQQLKPYTMDLMEQVALRVQELQEQLRVVGEDTKAQLLGGVDEAWALLQGLQSRVVHHTGRFKELFHPYAESLVSGIGRHVQELHRSVAPHAPASPARLSRCVQVLSRKLTLKAKALHARIQQNLDQLREELSRAFAGTGTEEGAGPDPQMLSEEVRQRLQAFRQDTYLQIAAFTRAIDQETEEVQQQLAPPPPGHSAFAPEFQQTDSGKVLSKLQARLDDLWEDITHSLHDQGHSHLGDP
notes: mature human ApoA5, residues 24-366 of NP_443200.2; Secreted by a mouse IgG kappa signal peptide; source: HEK293, transient transfection, purified from culture media (Ni-NTA, Superdex 200); not shown: His tag, N-terminal, kept; mature human serum albumin (HSA), N-terminal, kept
One may read the Kd as the equilibrium constant for the complex coming apart. As a reminder, the koff is the first-order rate constant of dissociation. One may read the kon as the rate constant with which the complex forms. On to B1, for which the “EC50 of HSA-ApoA5 to block the inhibition of LPL activity by 0.3 nM ANGPTL3/8 (human LPL-stable expression cells, EnzChek substrate)” value in assay [2] is 21 nM. Also, in assay [3], the dissociation constant Kd was determined as 0.52 nM, the off-rate constant (koff) was determined as 0.000135 s⁻¹ and the kon came to 260000 M⁻¹ s⁻¹. Moreover, in assay [4], the protein ratio ApoA5/ANGPTL8 in the immunoprecipitate (ApoA5 per ANGPTL3/8 complex) was 0.5 and 0.53.
